Molecular target: human FcRn (human) (UniProt P55899)
Experiment: SPR (Biacore), pH 7.1; antibody captured on biot-IZ-hCD40L, soluble receptor as analyte

Kd: > 5 µM
Substance: 5c8-IgG1 (antibody)

From patent US20170051059A1
